Source: US11147834B2 (MiZ Company Limited, priority 2018, dated 2021)

How the values were obtained:
[1] = compared with H2; cited from earlier work
[2] = tested on: (wet) age-related macular degeneration; test: Case of a patient with (wet) age-related macular degeneration: hydrogen aspiration and hydrogen water, Lucentis and laser therapy; assay type: in vivo, human
Experimental: A patient felt itchiness on the left eye in September 2013, took their glasses off, and covered their left eye.
Lucentis (R) was injected in the vitreous body of the patient and the patient received laser therapy after 1 week. After additional 1 month, Lucentis (R) was re-injected.
After 10 months, the injection was discontinued and only a test was continued. Thereafter, the patient visited the hospital once in three months and their pathological conditions were checked by a test.
Then, the patient received the second laser therapy, and Lucentis (R) injection approximately once a month.
The doctor recommended that the patient receive another laser therapy if the result of injection in February was bad.
After that, the patient received Lucentis (R) injection. One week after the injection, detailed fundus examination was conducted to check their pathological conditions.
Then, the patient daily drank 500 ml/morning and 500 ml/night of the water for 1 month.
When the patient received Lucentis (R) injection on Apr. 11, 2018, their pathological conditions were checked. […] However, after one week, the patient was re-examined.

In the case of `[2H][2H]` [D2, deuterium], the superoxide-scavenging action [1] is given as “stronger superoxide-scavenging action than H2”.

For `[HH]` [hydrogen, molecular hydrogen], the “visual acuity of the eye with age-related macular degeneration” value ([2]; after aspirating hydrogen and drinking hydrogen water, improved from 0.1) was 1.2 and the “choroidal neovascularization (detailed fundus examination)” value ([2]; gaseous hydrogen about 4% by volume aspirated about 2 hours x 3 (7-day interval), February 2018, then Lucentis injection, examined one week after the injection) was “degeneration”.

B1: ranibizumab (antibody, chains of the INN, looked up, V domains shown)
VH: EVQLVESGGGLVQPGGSLRLSCAASGYDFTHYGMNWVRQAPGKGLEWVGWINTYTGEPTYAADFKRRFTFSLDTSKSTAYLQMNSLRAEDTAVYYCAKYPYYYGTSHWYFDVWGQGTLVTVSS
VL: DIQLTQSPSSLSASVGDRVTITCSASQDISNYLNWYQQKPGKAPKVLIYFTSSLHSGVPSRFSGSGSGTDFTLTISSLQPEDFATYYCQQYSTVPWTFGQGTKVEIK
modifications: Fab
notes: an anti-VEGF drug, ranibizumab; Novartis Pharma K. K
In the case of B1, the “effects of laser therapy and Lucentis injection” value ([2]; during three years before initiation of hydrogen gas inhalation) is reported as “no effects”, the therapeutic effect ([2]; first course: intravitreal injection, laser therapy after 1 week, re-injection after additional 1 month) is reported as “therapeutic effect appeared” and the “test result after injection” value ([2]; injection in January 2018) is reported as “very bad”. The treatment outcome ([2]; same treatment repeated two years later after worsening) was “not good”.
